Results: patent publication US20090148434A1 (published 2009)

T1: human p55 TNF receptor (human, UniProt P19438 30-211, limits assumed)
T1 construct: also called TNF Receptor 1; TNFR1
T1 sequence (looked up): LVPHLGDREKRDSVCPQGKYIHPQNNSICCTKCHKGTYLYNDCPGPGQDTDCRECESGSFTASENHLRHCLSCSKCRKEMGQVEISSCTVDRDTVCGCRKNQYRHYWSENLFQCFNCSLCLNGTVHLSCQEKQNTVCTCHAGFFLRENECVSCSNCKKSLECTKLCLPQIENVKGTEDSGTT


Tests used:
human serum albumin = target: T2, human serum albumin (human, UniProt P02768 25-609); test: not stated; IC50/Kd, called Kd in paragraph 434
T2 construct: also called HSA

human p55 TNF receptor = target: T1, human p55 TNF receptor

Row | Kd (human serum albumin) [nM] | Kd (human p55 TNF receptor) [nM] | Binder
1 | 50 |  | TAR3h-22 (other, anti-HSA VH dAb expressed from pDOM5) VH: STEVQLLESGGGLVQPGGSLRLSCAASGFTFSKYWMSWVRQAPGKGLEWVSSIDFMGPHTYYADSVKGRFTISRDNSKNTLYLQMNSLRAEDTAVYYCAKGRTSMLPMKGKFDYWGQGTLVTVSSAAAEQKLISEEDLN
2 | 800 |  | TAR3h-23 (other, anti-HSA VH dAb expressed from pDOM5) VH: STEVQLLESGGGLVQPGGSLRLSCAASGFTFYDYNMSWVRQAPGKGLEWVSTITHTGGVTYYADSVKGRFTISRDNSKNTLYLQMNSLRAEDTAVYYCAKQNPSYQFDYWGQGTLVTVSSAAAEQKLISEEDLN
3 | 200 |  | TAR3h-26 (other, anti-HSA VH dAb expressed from pDOM5) VH: STEVQLLESGGGLVQPGGSLRLSCTASGFTFDEYNMSWVRQAPGKGLEWVSTILPHGDRTYYADSVKGRFTISRDNSKNTLYLQMNSLRAEDTAVYYCAKQDPLYRFDYWGQGTLVTVSSAAAEQKLISEEDLN
4 |  | 10 to 15 | TAR2h10-55 (other, expressed from pDOM5; also called TAR2h10-55 dAb) VH: STEVQLLESGGGLVQPGGSLRLSCAASGFPFEWYWMGWVRQAPGKGLEWVSAISGSGDSTYYADSVKGRFTISRDNSKNTLYQQMNSLRAEDAAVYYCAKVKLGGGPNFGYRGQGTLVTVSSAAAEQKLISEEDLN
